Test results as given in paper PMC10204484.

Target: anti-DENV antibody with the 3Cam2 variable region and the LALA Fc variant (human)

**Q.** “mouse C1q (from UniProt P98086 23-245; P14106 26-253; Q02105 30-246) (complex)” was tested. Which C3b ELISA (complement activation) on plate-immobilised antibody incubated with AG129 mouse serum; absorbance ratio versus the well without antibody immobilization did it give?
**A.** 1.5 fold
